# B1: OR4K15 (parent)
# chain: GUUAACGGUCAUAGGCCAUGGAAACUAGGAGCACCAUUUCGCUGCCAGUGAAGAAAUGAACAAAGAAAAUCUGGGCCAGGCAGGCAUCAAAAGAAAUAGUCUUGCGCUCAACCAGAAAGUCUGUAAUCAUUUUAAGGGUA
# Variants of: B1
# Assay: self-cleavage, relative activity (ratio to wild type); higher = more cleavage; in vitro, sequencing; the parent is a self-cleaving ribozyme
row,Variant,self-cleavage
1,A11G A95G,1.73
2,C10U U100C,2.44
3,U9C A59U,1.48
4,C10U U57C,1.03
5,U9A A126G,0.57
6,U9C A110U,1.32
7,U9C A110C,0.45
8,U9A A66G,1
9,U9C A134G,1.55
10,G7A U133A,0.79
11,U9A A54G,1.42
12,U9A C109A,0.42
13,A11G A92U,1.26
14,A11G A92G,1.1
15,U9G A89U,1.03
16,C10U A82U,0.13
17,U9C A51U,2.13
18,U9C U102C,2.15
19,U9C U102A,1.31
20,U9G A92G,1.15
21,U9C G41U,1.55
22,U9C A63G,1.64
23,U9C A98G,0.22
24,U9A A24U,2.1

row,Variant,self-cleavage
1,A11G A62G,1.11
2,U9C A117G,1.91
3,U9C A117U,1.04
4,U9C U72C,0.2
5,U9A A56G,1.3
6,C10A C77U,1.18
7,A11G A23G,1.1
8,U9C A67G,1.85
9,U9C A67C,1.31
10,U9A U139C,1.69
11,G8A A91G,1.17
12,A11G A67U,1.16
13,A11G A67G,0.74
14,A11G A47U,0.98
15,C10U G14U,0.49
16,U9C U97C,1.09
17,U9A U127C,1.05
18,U9A U127A,0.66
19,G7U A60G,0.79
20,A11G C32G,0.61
21,U9C A52C,1.39
22,G7A G75U,0.13
23,G7U G21A,0.87
24,G7U C77A,0.23

row,Variant,self-cleavage
1,G8A A47C,1.67
2,U9C G29A,2.15
3,C10U A125G,0.61
4,A11G C105U,0.09
5,C10A A69G,0.29
6,U9C A95G,1.88
7,A11G A129U,0.45
8,A11G A129G,0.83
9,G7C A23G,0.73
10,U9C A66U,1.42
11,G7A U26C,1.44
12,G7A U26A,0.93
13,G8C A110G,0.26
14,U9A A30U,1.22
15,U9G A68G,0.72
16,U9C A82C,0.07
17,U9G U12C,0.29
18,U9A A23G,0.95
19,A11G A117G,1.19
20,U9A U108C,0.03
21,C10U A118G,0.33
22,U9C G48A,0.64
23,G8A A27G,1.84
24,C10U U39A,0.81

row,Variant,self-cleavage
1,U9C U26C,1.06
2,G7C,1.07
3,G7U,1.23
4,U9A A116U,0.18
5,U9A A116G,0.45
6,A11G G73A,0.14
7,U9C A55G,1.28
8,U9C A78G,0.32
9,A11G C81U,0.75
10,C10U G104A,0.06
11,U9A A117G,2.34
12,U9A U38C,1.05
13,A11C U102C,1.91
14,A11G A54U,1.09
15,G7U A86U,1.63
16,C10A A30G,0.63
17,U9C A36U,1.48
18,A11G A69G,0.99
19,A11G A69U,1
20,U9C U19A,1.65
21,U9C U19C,1.77
22,A11G A64G,1.3
23,A11G A64U,0.97
24,U9C A56G,1.24

row,Variant,self-cleavage
1,U9C A69G,1.38
2,U9C U122A,1.06
3,A11G C85A,1.53
4,U9C C16U,1.59
5,U9C A13G,0.81
6,G7A C112U,0.02
7,G7U A23G,1.04
8,G7U A23C,1.66
9,U9C U49C,1.67
10,U9C U49A,1.56
11,U9C U49G,0.96
12,A11G G50U,1.02
13,G8U U108A,0
14,A11C A27U,1.24
15,U9C C45G,0.85
16,U9C A91G,1.2
17,U9C A91C,2.12
18,U9C A126G,1.19
19,G8A A98G,1.78
20,U9C C85U,1.44
21,U9C G31A,1.12
22,A11G G14A,1.31
23,A11C U103C,0.98
24,U9A A86U,1.37

row,Variant,self-cleavage
1,U9A U102C,1.97
2,U9A U57C,1.02
3,U9C A18G,1.65
4,A11G A126G,0.39
5,A11G G74C,0.38
6,A11G G74A,0.41
7,U9C C35A,1.71
8,U9A A47U,0.91
9,U9G C45G,0.5
10,G7U A68G,2.39
11,C10U,0.84
12,C10A,1.11
13,U9C U70A,0.97
14,U9C U70C,0.77
15,A11G G58U,0.79
16,A11C A24G,1.94
17,A11G A36U,1.12
18,A11C U127C,0.83
19,A11G A116U,0.12
20,A11G A116G,0.92
21,G7U U38C,0.4
22,G8A A68G,2.15
23,G7U A66G,1.42
24,U9C A64G,1.52

row,Variant,self-cleavage
1,C10U A94G,1.27
2,U9A U39C,0.86
3,C10U U19C,1.34
4,A11C U97C,1.26
5,G8A A52G,2.73
6,G7U U26C,2.12
7,U9C U39A,1.33
8,U9C U39C,1.45
9,A11G A114U,0.15
10,U9C A90G,1.04
11,U9A U132C,0.79
12,A11C A114U,0.09
13,A11G A52G,1.03
14,G8A A134G,1.52
15,G7U U122A,1.64
16,U9A A63G,1.23
17,G8A A118G,1.28
18,U9A A36G,1.59
19,U9C G104A,0.06
20,U9A U100C,1.68
21,U9A A129U,1.02
22,A11G A51U,0.82
23,U9C U43G,2.16
24,U9C U43A,1.24

row,Variant,self-cleavage
1,C10U U37C,1.65
2,U9A U120C,0.79
3,U9A U120A,1.36
4,U9G U130C,0.7
5,A11G A24U,0.53
6,A11G A24C,1.51
7,A11G A24G,1.02
8,G7A U127C,1.29
9,U9C U87A,1.98
10,U9C U87G,0.69
11,U9C U87C,0.96
12,C10A A110G,0.31
13,U9G A118G,0.91
14,A11C A78G,0.18
15,U9C A11G,0.85
16,U9C A11C,1.71
17,U9C G65A,2.38
18,A11G A111C,0.04
19,A11G A111U,0.11
20,C10U A22U,1.21
21,G8U A126G,0.32
22,U9G A59G,1
23,U9A U124C,0.91
24,G8C A52C,2.89

row,Variant,self-cleavage
1,C10U C77U,0.98
2,A11C U131C,0.89
3,A11C A63G,1.91
4,A11C A52U,1.5
5,U9C C105U,0.14
6,G8U A69G,2.76
7,A11G G48A,1.9
8,A11G C61A,0.69
9,C10U A90C,0.97
10,U9C A33G,1.15
11,U9C A33U,1.73
12,U9A A135G,1.41
13,U9A A135U,1
14,A11C A91G,1.67
15,G8A A33U,2.08
16,C10U A86G,0.7
17,U9C A94G,1.35
18,G8A U108A,0.05
19,U9A A78G,0.32
20,U9A A78U,0.15
21,U9A G115A,0.23
22,U9C U38C,1.7
23,U9C U38A,1.98
24,A11G A22U,1.75

row,Variant,self-cleavage
1,G7U A91G,0.72
2,U9A G106C,0.05
3,A11G A89U,1.34
4,A11G A89G,0.59
5,U9C C17U,1.8
6,U9C A86U,1.74
7,G8A U122C,0.6
8,U9G A91C,0.6
9,U9C G115C,0.11
10,A11C A86G,1.7
11,G8A A18U,0.97
12,U9C U132A,1.85
13,U9C G21A,1.38
14,A11C A110U,1.76
15,U9G A129G,0.65
16,U9C A96U,1.72
17,G7U G137U,1.84
18,U9C A62G,1.49
19,U9A C34U,0.55
20,C10A U127C,0.84
21,U9A U70C,1.07
22,G7A U9C,2.32
23,G7A U102C,1.75
24,U9C G106A,0.01

row,Variant,self-cleavage
1,U9C G106U,0
2,U9A A111G,0.03
3,C10U U38A,0.84
4,C10U A78G,0.1
5,A11G A82G,0.55
6,C10A G44A,1.2
7,A11G A27G,1.1
8,A11G A18U,0.46
9,A11G A18G,1.36
10,G7C A11G,1.03
11,G7U U130C,1.45
12,A11C A60G,1.07
13,U9C A27G,1.55
14,U9C A27U,1.02
15,G8A A117U,1.67
16,G7A U70C,1
17,C10A U37G,0.71
18,C10A U37C,1
19,U9A U43C,1.25
20,U9A U43G,1.18
21,U9C U120C,1.66
22,U9C U131A,1.8
23,G7U A52G,1.83
24,U9A A51U,1.34

row,Variant,self-cleavage
1,U9A A51G,1.66
2,U9C G123A,2.14
3,U9A A60G,0.57
4,A11G A55G,0.92
5,U9C G74U,0.15
6,G8A A23G,1.58
7,U9A A22C,0.95
8,U9C C109G,0.04
9,U9C C109A,0.49
10,G7U A118G,1.38
11,A11G A60G,0.86
12,U9A U122G,2.09
13,G7U G138C,2.14
14,A11G A33G,0.84
15,A11G A33C,1.98
16,U9C A125G,0.66
17,G7U U97A,1.41
18,U9C C81U,0.36
19,C10G A60G,0.77
20,A11G C46U,0.77
21,A11G C71G,0.34
22,U9A A95G,1.18
23,C10U A68G,0.34
24,U9C A118U,0.88

row,Variant,self-cleavage
1,U9C A118G,1.32
2,A11C A82U,0.36
3,G8A A59G,1.47
4,U9C U108A,0.04
5,U9C U124C,1.25
6,G7U A18G,1.68
7,U9A A82G,1.13
8,U9A A82U,0.12
9,A11G A118G,1.02
10,U9G A69G,1
11,U9C A23G,1.02
12,A11C U43C,2.23
13,U9A A62U,0.88
14,U9A A62G,0.45
15,A11G A63C,0.97
16,A11G A63G,1.1
17,A11G A96G,1.18
18,U9G U108C,0.05
19,A11C U38C,1.72
20,A11G A13U,0.72
21,A11G A13G,1.26
22,A11G A56G,0.35
23,U9C U57C,1.07
24,U9C U57G,1.07

row,Variant,self-cleavage
1,U9C C61U,2.27
2,G7C A91G,0.76
3,G7A U100C,2.22
4,G7A U100A,0.82
5,U9C U12C,1.27
6,U9C U12A,1.59
7,U9C A22U,1.7
8,A11C A13U,1.09
9,A11G G29A,0.57
10,G8A U43A,2.05
11,U9C C40U,1.45
12,U9A G58A,0.78
13,A11G A98G,0.33
14,U9C A114U,0.1
15,U9A U72C,0.16
16,G8A A69G,1.29
17,U9C U37C,1.57
18,C10U G31U,1.22
19,U9A C32U,1.2
20,G7U A11G,1.63
21,G7U A13G,1.41
22,C10U U120C,1.12
